In US12338277:

Assays:
Assay in all cases: cell-based or functional assay
[1] = molecular target: HIV-1 envelope of pseudovirus CNE30 (HIV-1)
[2] = molecular target: HIV-1 envelope of pseudovirus 3817.v2.c59 (HIV-1)
[3] = molecular target: HIV-1 envelope of pseudovirus MS208.A1 (HIV-1)
[4] = molecular target: HIV-1 envelope of pseudovirus AC10.0.29 (HIV-1)
[5] = molecular target: HIV-1 envelope of pseudovirus CNE17 (HIV-1)
[6] = molecular target: HIV-1 Env of pseudovirus THRO4156.18 (HIV-1)
[7] = molecular target: HIV-1 Env of pseudovirus SC422661.8 (HIV-1)
[8] = molecular target: HIV-1 envelope of pseudovirus BF1266.431a (HIV-1)
[9] = molecular target: HIV-1 envelope of pseudovirus BJOX025000.01.1 (HIV-1)
[10] = molecular target: HIV-1 Env of pseudovirus X1632_S2_B10 (HIV-1)
[11] = molecular target: HIV-1 envelope of pseudovirus Du156.12 (HIV-1)
[12] = molecular target: HIV-1 envelope spike of pseudovirus SC422661.8 (HIV-1)
[13] = molecular target: HIV-1 envelope of pseudovirus HIV-001428-2.42 (HIV-1)
[14] = molecular target: HIV-1 Env of pseudovirus Ce2010_F5 (HIV-1)
[15] = molecular target: HIV-1 Env of pseudovirus 620345.c01 (HIV-1)
[16] = molecular target: HIV-1 Env of pseudovirus R2184.c04 (HIV-1)
[17] = molecular target: HIV-1 envelope of pseudovirus CNE52 (HIV-1)
[18] = molecular target: HIV-1 Env of pseudovirus 3365.v2.c2 (HIV-1)
[19] = molecular target: HIV-1 envelope of pseudovirus Ce0393_C3 (HIV-1)
[20] = molecular target: HIV-1 envelope of pseudovirus 6540.v4.c1 (HIV-1)
[21] = molecular target: HIV-1 envelope of pseudovirus Ce2060_G9 (HIV-1)
[22] = molecular target: HIV-1 envelope of pseudovirus 3365.v2.c2 (HIV-1)
[23] = molecular target: HIV-1 envelope of pseudovirus HIV-16055-2.3 (HIV-1)
[24] = molecular target: HIV-1 Env of pseudovirus Du156.12 (HIV-1)
[25] = molecular target: HIV-1 envelope of pseudovirus ZM214M.PL15 (HIV-1)
[26] = molecular target: HIV-1 Env of pseudovirus WEAU_d15_410_787 (HIV-1)
[27] = molecular target: HIV-1 Env of pseudovirus 928-28 (HIV-1)
[28] = molecular target: HIV-1 envelope of pseudovirus R2184.c04 (HIV-1)
[29] = molecular target: HIV-1 Env of pseudovirus Ce1176_A3 (HIV-1)
[30] = molecular target: HIV-1 Env of pseudovirus 7030102001E5(Rev-) (HIV-1)
[31] = molecular target: HIV-1 envelope of pseudovirus Q259.d2.17 (HIV-1)
[32] = molecular target: HIV-1 Env of pseudovirus ZM197M.PB7 (HIV-1)
[33] = molecular target: HIV-1 envelope spike of pseudovirus PVO.4 (HIV-1)
[34] = molecular target: HIV-1 envelope of pseudovirus QH0692.42 (HIV-1)
[35] = molecular target: HIV-1 Env of pseudovirus Ce0682_E4 (HIV-1)
[36] = molecular target: HIV-1 Env of pseudovirus T278-50 (HIV-1)
[37] = molecular target: HIV-1 Env of pseudovirus 3103.v3.c10 (HIV-1)
[38] = molecular target: HIV-1 Env of pseudovirus HIV-16055-2.3 (HIV-1)
[39] = molecular target: HIV-1 Env of pseudovirus WITO4160.33 (HIV-1)
[40] = molecular target: HIV-1 envelope of pseudovirus WITO4160.33 (HIV-1)
[41] = molecular target: HIV-1 envelope of pseudovirus 6545.v4.c1 (HIV-1)
[42] = molecular target: HIV-1 Env of pseudovirus Ce703010054_2A2 (HIV-1)
[43] = molecular target: HIV-1 envelope of pseudovirus 3016.v5.c45 (HIV-1)
[44] = molecular target: HIV-1 envelope of pseudovirus 6240_08_TA5_4622 (HIV-1)
[45] = molecular target: HIV-1 envelope of pseudovirus T255-34 (HIV-1)
[46] = molecular target: HIV-1 envelope of pseudovirus 0260.v5.c36 (HIV-1)
[47] = molecular target: HIV-1 envelope of pseudovirus T251-18 (HIV-1)
[48] = molecular target: HIV-1 envelope of pseudovirus PVO.4 (HIV-1)
[49] = molecular target: HIV-1 Env of pseudovirus BJOX028000.10.3 (HIV-1)
[50] = molecular target: HIV-1 Env of pseudovirus 0815.v3.c3 (HIV-1)

10-1074 (antibody), sequence (VH): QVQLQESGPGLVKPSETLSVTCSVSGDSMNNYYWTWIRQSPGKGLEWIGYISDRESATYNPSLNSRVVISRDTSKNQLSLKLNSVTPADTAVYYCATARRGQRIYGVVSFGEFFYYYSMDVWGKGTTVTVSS
10-1074 (antibody), sequence (V domain): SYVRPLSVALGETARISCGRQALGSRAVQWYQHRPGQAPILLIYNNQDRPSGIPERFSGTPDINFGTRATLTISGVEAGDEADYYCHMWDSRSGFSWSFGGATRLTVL

## PGT121 (antibody)
[1]
  IC50 (TZM-bl neutralization): 0.101 µg/mL
[2]
  IC50 (TZM-bl neutralization): > 50 µg/mL
[3]
  IC50 (TZM-bl neutralization): > 50 µg/mL
[4]
  IC50 (TZM-bl neutralization): 0.037 µg/mL
[5]
  IC50 (TZM-bl neutralization): 45.3 µg/mL
[6]
  IC80 (TZM-bl neutralization): > 50 µg/mL
[7]
  IC80 (TZM-bl neutralization): 0.46 µg/mL
[8]
  IC50 (TZM-bl neutralization): > 50 µg/mL
[9]
  IC50 (TZM-bl neutralization): > 50 µg/mL
[10]
  IC80 (TZM-bl neutralization): > 50 µg/mL
[11]
  IC50 (TZM-bl neutralization): 0.007 µg/mL
[12]
  IC50 (TZM-bl neutralization assay): 0.263 µg/mL
  IC80 (TZM-bl neutralization assay): 0.714 µg/mL
[13]
  IC50 (TZM-bl neutralization): 0.028 µg/mL
[14]
  IC80 (TZM-bl neutralization): > 50 µg/mL
[15]
  IC80 (TZM-bl neutralization): > 50 µg/mL
[16]
  IC80 (TZM-bl neutralization): > 50 µg/mL
[17]
  IC50 (TZM-bl neutralization): 3.74 µg/mL
[18]
  IC80 (TZM-bl neutralization): 7.35 µg/mL
[19]
  IC50 (TZM-bl neutralization): > 50 µg/mL
[20]
  IC50 (TZM-bl neutralization): > 50 µg/mL
[21]
  IC50 (TZM-bl neutralization): > 50 µg/mL
[22]
  IC50 (TZM-bl neutralization): 0.921 µg/mL
[23]
  IC50 (TZM-bl neutralization): 0.444 µg/mL
[24]
  IC80 (TZM-bl neutralization): 0.033 µg/mL
[25]
  IC50 (TZM-bl neutralization): 0.236 µg/mL
[26]
  IC80 (TZM-bl neutralization): 0.295 µg/mL
[27]
  IC80 (TZM-bl neutralization): > 50 µg/mL
[28]
  IC50 (TZM-bl neutralization): > 50 µg/mL
[29]
  IC80 (TZM-bl neutralization): 0.058 µg/mL
[30]
  IC80 (TZM-bl neutralization): 0.043 µg/mL
[31]
  IC50 (TZM-bl neutralization): 8.99 µg/mL
[32]
  IC80 (TZM-bl neutralization): > 50 µg/mL
[33]
  IC50 (TZM-bl neutralization assay): 0.147 µg/mL
  IC80 (TZM-bl neutralization assay): 1.1 µg/mL
[34]
  IC50 (TZM-bl neutralization): 1.04 µg/mL
[35]
  IC80 (TZM-bl neutralization): > 50 µg/mL
[36]
  IC80 (TZM-bl neutralization): > 50 µg/mL
[37]
  IC80 (TZM-bl neutralization): 0.11 µg/mL
[38]
  IC80 (TZM-bl neutralization): 4.29 µg/mL
[39]
  IC80 (TZM-bl neutralization): 6.01 µg/mL
[40]
  IC50 (TZM-bl neutralization): 0.459 µg/mL
[41]
  IC50 (TZM-bl neutralization): > 50 µg/mL
[42]
  IC80 (TZM-bl neutralization): > 50 µg/mL
[43]
  IC50 (TZM-bl neutralization): > 50 µg/mL
[44]
  IC50 (TZM-bl neutralization): 0.128 µg/mL
[45]
  IC50 (TZM-bl neutralization): 6.72 µg/mL
[46]
  IC50 (TZM-bl neutralization): 0.054 µg/mL
[47]
  IC50 (TZM-bl neutralization): > 50 µg/mL
[48]
  IC50 (TZM-bl neutralization): 0.131 µg/mL
[49]
  IC80 (TZM-bl neutralization): > 50 µg/mL
[50]
  IC80 (TZM-bl neutralization): 0.105 µg/mL

## 10-1074 (antibody)
[1]
  IC50 (TZM-bl neutralization): 0.363 µg/mL
[2]
  IC50 (TZM-bl neutralization): 3.15 µg/mL
[3]
  IC50 (TZM-bl neutralization): > 50 µg/mL
[4]
  IC50 (TZM-bl neutralization): 0.022 µg/mL
[5]
  IC50 (TZM-bl neutralization): 2.69 µg/mL
[6]
  IC80 (TZM-bl neutralization): > 50 µg/mL
[7]
  IC80 (TZM-bl neutralization): 0.418 µg/mL
[8]
  IC50 (TZM-bl neutralization): > 50 µg/mL
[9]
  IC50 (TZM-bl neutralization): > 50 µg/mL
[10]
  IC80 (TZM-bl neutralization): > 50 µg/mL
[11]
  IC50 (TZM-bl neutralization): 0.015 µg/mL
[12]
  IC50 (TZM-bl neutralization assay): 0.145 µg/mL
  IC80 (TZM-bl neutralization assay): 0.392 µg/mL
[13]
  IC50 (TZM-bl neutralization): 0.044 µg/mL
[14]
  IC80 (TZM-bl neutralization): > 50 µg/mL
[15]
  IC80 (TZM-bl neutralization): > 50 µg/mL
[16]
  IC80 (TZM-bl neutralization): > 50 µg/mL
[17]
  IC50 (TZM-bl neutralization): 1.23 µg/mL
[18]
  IC80 (TZM-bl neutralization): 0.45 µg/mL
[19]
  IC50 (TZM-bl neutralization): > 50 µg/mL
[20]
  IC50 (TZM-bl neutralization): > 50 µg/mL
[21]
  IC50 (TZM-bl neutralization): > 50 µg/mL
[22]
  IC50 (TZM-bl neutralization): 0.131 µg/mL
[23]
  IC50 (TZM-bl neutralization): > 50 µg/mL
[24]
  IC80 (TZM-bl neutralization): 0.076 µg/mL
[25]
  IC50 (TZM-bl neutralization): 0.174 µg/mL
[26]
  IC80 (TZM-bl neutralization): 0.375 µg/mL
[27]
  IC80 (TZM-bl neutralization): 4.7 µg/mL
[28]
  IC50 (TZM-bl neutralization): > 50 µg/mL
[29]
  IC80 (TZM-bl neutralization): 0.07 µg/mL
[30]
  IC80 (TZM-bl neutralization): 0.021 µg/mL
[31]
  IC50 (TZM-bl neutralization): > 50 µg/mL
[32]
  IC80 (TZM-bl neutralization): > 50 µg/mL
[33]
  IC50 (TZM-bl neutralization assay): 0.178 µg/mL
  IC80 (TZM-bl neutralization assay): 0.766 µg/mL
[34]
  IC50 (TZM-bl neutralization): 0.191 µg/mL
[35]
  IC80 (TZM-bl neutralization): > 50 µg/mL
[36]
  IC80 (TZM-bl neutralization): 18.3 µg/mL
[37]
  IC80 (TZM-bl neutralization): 0.101 µg/mL
[38]
  IC80 (TZM-bl neutralization): > 50 µg/mL
[39]
  IC80 (TZM-bl neutralization): 2.11 µg/mL
[40]
  IC50 (TZM-bl neutralization): 0.185 µg/mL
[41]
  IC50 (TZM-bl neutralization): > 50 µg/mL
[42]
  IC80 (TZM-bl neutralization): > 50 µg/mL
[43]
  IC50 (TZM-bl neutralization): > 50 µg/mL
[44]
  IC50 (TZM-bl neutralization): 0.068 µg/mL
[45]
  IC50 (TZM-bl neutralization): > 50 µg/mL
[46]
  IC50 (TZM-bl neutralization): 0.099 µg/mL
[47]
  IC50 (TZM-bl neutralization): 1.08 µg/mL
[48]
  IC50 (TZM-bl neutralization): 0.074 µg/mL
[49]
  IC80 (TZM-bl neutralization): > 50 µg/mL
[50]
  IC80 (TZM-bl neutralization): 0.138 µg/mL
